Data published in the Immune Epitope Database (IEDB).

Legend:
Test in all cases: IEDB peptide-MHC binding, purified MHC/competitive/radioactivity; filed as Kd, often an IC50 or EC50 that approximates it; ≥ and ≤ were set here for values at or beyond the usual limits of such assays
Conditions in all cases: source organism: Homo sapiens
HLA-A*03:01 = molecular target: HLA-A*03:01
HLA-A*11:01 = molecular target: HLA-A*11:01
HLA-A*31:01 = molecular target: HLA-A*31:01
HLA-A*33:01 = molecular target: HLA-A*33:01
HLA-A*68:01 = molecular target: HLA-A*68:01

Kd (HLA-A*03:01) [µM]	Kd (HLA-A*11:01) [µM]	Kd (HLA-A*31:01) [µM]	Kd (HLA-A*33:01) [µM]	Kd (HLA-A*68:01) [µM]	Sequence
0.57	0.656	0.011	0.106	1.09	LLGPGRPYR
0.054	0.0083	0.0083	0.014	0.0085	MSLQRQFLR
